Two molecules from patent publication US20180194839A1 (Novartis, published 2018) can be followed below.

Numbering of substitutions follows the chain as printed. Numbers in names are those of the source.

Assay in all cases: ELISA, coated cytokine, Ab 10 µg/ml
For orientation: ELISA stands for enzyme-linked immunosorbent assay.

The target in experiment [1] is T1, recombinant human IL-18 (MBL Cat# B003-5) (human, UniProt Q14116 37-193).
T1 construct: also called huIL-18
T1 sequence (looked up): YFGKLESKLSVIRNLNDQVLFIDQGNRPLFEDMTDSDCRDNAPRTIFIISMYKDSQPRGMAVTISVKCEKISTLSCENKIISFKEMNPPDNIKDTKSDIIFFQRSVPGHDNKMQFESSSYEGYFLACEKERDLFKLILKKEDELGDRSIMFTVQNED

Experiment [2] has as its target T2, recombinant human IL-12 (R&D Systems Cat#219-IL-005/CF) (human, UniProt P29459 23-219; P29460 23-328).
T2 construct: also called huIL-12
T2 sequence (looked up) 1: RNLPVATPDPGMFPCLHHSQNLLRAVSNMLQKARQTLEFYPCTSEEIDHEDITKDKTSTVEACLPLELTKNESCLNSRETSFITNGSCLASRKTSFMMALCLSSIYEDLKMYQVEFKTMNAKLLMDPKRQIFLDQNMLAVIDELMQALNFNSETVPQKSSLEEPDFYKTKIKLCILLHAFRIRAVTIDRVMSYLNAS
T2 sequence (looked up) 2: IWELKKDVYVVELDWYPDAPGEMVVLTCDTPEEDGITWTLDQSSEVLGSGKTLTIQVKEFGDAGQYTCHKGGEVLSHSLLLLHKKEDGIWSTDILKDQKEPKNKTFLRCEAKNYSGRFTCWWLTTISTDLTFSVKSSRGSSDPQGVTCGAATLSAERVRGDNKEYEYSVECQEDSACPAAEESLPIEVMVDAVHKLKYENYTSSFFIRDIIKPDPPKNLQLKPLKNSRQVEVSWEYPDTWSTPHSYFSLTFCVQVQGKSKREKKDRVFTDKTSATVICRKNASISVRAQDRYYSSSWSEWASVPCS

Experiment [3] concerns the target T3, recombinant human IL-6 (R&D Systems Cat#206-IL-1010/CF) (human, UniProt P05231 30-212).
T3 construct: also called huIL-6

Experiment [4] deals with T4, recombinant human IL-17A (SEQ ID NO: 76) (human, UniProt Q16552 24-155, limits assumed).
T4 construct: homodimer; also called huIL-17A; rhuIL-17A
T4 sequence: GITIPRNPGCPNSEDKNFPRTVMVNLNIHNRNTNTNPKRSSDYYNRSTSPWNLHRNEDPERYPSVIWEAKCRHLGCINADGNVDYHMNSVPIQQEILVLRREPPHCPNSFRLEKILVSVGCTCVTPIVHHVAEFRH

Experiment [5] addresses T5, recombinant human IL-20 (Novartis) (human, UniProt Q9NYY1 25-176, limits assumed).
T5 construct: also called huIL-20
T5 sequence (looked up): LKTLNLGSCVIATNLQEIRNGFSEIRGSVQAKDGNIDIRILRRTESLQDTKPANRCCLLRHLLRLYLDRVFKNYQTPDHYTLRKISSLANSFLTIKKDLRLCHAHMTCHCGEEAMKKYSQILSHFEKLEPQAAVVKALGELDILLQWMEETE

Experiment [6] concerns the target T6, recombinant mouse IL-12 (R&D Systems Cat#419-ML-010/CF) (mouse, UniProt P43431 23-215; P43432 23-335).
T6 construct: coated at 0.5 µg/ml; also called mIL-12
T6 sequence (looked up) 1: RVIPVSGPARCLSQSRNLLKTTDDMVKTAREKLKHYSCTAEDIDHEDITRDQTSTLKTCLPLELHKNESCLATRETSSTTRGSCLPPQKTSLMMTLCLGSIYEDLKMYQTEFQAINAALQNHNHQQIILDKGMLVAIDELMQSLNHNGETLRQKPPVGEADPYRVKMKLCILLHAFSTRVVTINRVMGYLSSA
T6 sequence (looked up) 2: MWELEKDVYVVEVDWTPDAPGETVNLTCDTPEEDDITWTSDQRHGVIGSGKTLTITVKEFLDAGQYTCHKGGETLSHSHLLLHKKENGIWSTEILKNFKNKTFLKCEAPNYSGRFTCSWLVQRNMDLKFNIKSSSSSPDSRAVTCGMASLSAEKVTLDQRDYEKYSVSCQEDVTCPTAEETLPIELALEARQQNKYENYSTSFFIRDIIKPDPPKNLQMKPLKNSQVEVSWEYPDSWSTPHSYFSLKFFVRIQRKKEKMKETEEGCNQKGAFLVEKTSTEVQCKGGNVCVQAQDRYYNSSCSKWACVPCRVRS

The target in experiment [7] is T7, recombinant mouse IL-17F (R&D Systems Cat#2057-IL/CF) (mouse, UniProt Q7TNI7 29-161).
T7 construct: also called mIL-17F
T7 sequence (looked up): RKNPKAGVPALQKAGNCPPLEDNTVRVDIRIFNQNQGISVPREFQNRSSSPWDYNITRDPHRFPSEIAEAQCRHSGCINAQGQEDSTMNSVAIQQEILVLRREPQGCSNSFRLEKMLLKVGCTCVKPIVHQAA

The target in experiment [8] is T8, recombinant mouse IL-17A/F (R&D Systems Cat#5390-IL) (mouse, UniProt Q62386 26-158; Q7TNI7 29-161, limits assumed).
T8 construct: bought heterodimer; also called mIL-17A/F; rmIL-17A/F
T8 sequence (looked up) 1: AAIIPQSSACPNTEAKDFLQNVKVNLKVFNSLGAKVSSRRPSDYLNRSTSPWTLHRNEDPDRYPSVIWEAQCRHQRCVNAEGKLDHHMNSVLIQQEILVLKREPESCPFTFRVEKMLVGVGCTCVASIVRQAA
T8 sequence (looked up) 2: T7 sequence (looked up)

Experiment [9] addresses T9, recombinant mouse IL-2 (R&D Systems 402-ML-020/CF) (mouse, UniProt P04351 21-169).
T9 construct: also called mIL-2
T9 sequence (looked up): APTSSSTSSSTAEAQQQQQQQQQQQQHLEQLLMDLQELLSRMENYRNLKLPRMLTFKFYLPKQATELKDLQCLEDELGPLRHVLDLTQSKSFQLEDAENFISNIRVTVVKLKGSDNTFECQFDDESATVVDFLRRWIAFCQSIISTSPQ

B1: XAB4 (antibody, human IgG1, kappa, V domains shown)
VH: EVQLVESGGDLVQPGGSLRLSCAASGFTFSSYWMSWVRQAPGKGLEWVANIKQDGSEKYYVDSVKGRFTISRDNAKNSLYLQMNSLRAEDTAVYYCARDRGSLYYWGQGTLVTVSS
VL: AIQLTQSPSSLSASVGDRVTITCRPSQGINWELAWYQQKPGKAPKLLIYDASSLEQGVPSRFSGSGSGTDFTLTISSLQPEDFATYYCQQFNSYPLTFGGGTKVEIKR
notes: also called MB435 N56Q
Take B1: the O.D. in experiment [1] is -0.001 O.D; in [2], 0.009 O.D; in experiment [3], -0.015 O.D; in experiment [4], 3.18 O.D; in [5], 0.039 O.D; in experiment [6] it was 0.035 O.D. The O.D. stood at 0.034 O.D in experiment [7], 3.34 O.D in [8] and 0.024 O.D in experiment [9].

B2: XAB1 (antibody, human IgG1, kappa, V domains shown)
VH: B1 VH
VL: B1 VL with N30I, W31S, E32A, Q56N
notes: human IgG1/kappa monoclonal antibody; also called parental XAB1; XAB1 IgG
With B2, the O.D. is -0.086 O.D in [1]; -0.097 O.D in [2]; -0.044 O.D in experiment [3]; 2.75 O.D in experiment [4]; 0.335 O.D in experiment [5]; -0.005 O.D in experiment [6]. Also, the figures for the O.D. in [7], in experiment [8] and in [9] were -0.058 O.D, 3.17 O.D and 0.022 O.D, respectively.
